B1: mRNA-splicing (parent)
chain: AGUUGCUGCUGGGAGCUCCAGCACAGUGAAAUGGACAGAAGGGCAGAGCAA

Variants of: B1
Test: exon inclusion enrichment index; higher = more inclusion; WT1 exon 5 minigene, HEK293

In order of falling “exon inclusion enrichment index” value:
1. AGUUAUAACCGGGAGCUCCAGCACAGUGAAAUGGACAGAAGGGCAGAGCAA [G5A C6U U7A G8A U10C]  0.863
2. AGUUAUACGUGGGAGCUCCAGCACAGUGAAAUGGACAGAAGGGCAGAGCAA [G5A C6U U7A G8C C9G]  0.736
3. AGUUAUACCUGGGAGCUCCAGCACAGUGAAAUGGACAGAAGGGCAGAGCAA [G5A C6U U7A G8C]  0.696
4. AGUUAUACAUGGGAGCUCCAGCACAGUGAAAUGGACAGAAGGGCAGAGCAA [G5A C6U U7A G8C C9A]  0.286
5. AGUUAUAUAUGGGAGCUCCAGCGGAGUGAAAUGGACAGAAGGGCAGAGCAA [G5A C6U U7A G8U C9A A23G C24G]  0.259
6. AGUUAUAUAUGGGAGCUCCAGCCGAGUGAAAUGGACAGAAGGGCAGAGCAA [G5A C6U U7A G8U C9A A23C C24G]  0.241
7. AGUUAUAUAUGGGAGCUCCAGCGAAGUGAAAUGGACAGAAGGGCAGAGCAA [G5A C6U U7A G8U C9A A23G C24A]  0.238
8. AGUUAUACUUGGGAGCUCCAGCACAGUGAAAUGGACAGAAGGGCAGAGCAA [G5A C6U U7A G8C C9U]  0.218
9. AGUUAUAACUGGGAGCUCCAGCACAGUGAAAUGGACAGAAGGGCAGAGCAA [G5A C6U U7A G8A]  0.217
10. AGUUAUAUCUGGGAGCUCCAGCACAGUGAAAUGGACAGAAGGGCAGAGCAA [G5A C6U U7A G8U]  0.171
11. AGUUAUAUAUGGGAGCUCCAGCGCAGUGAAAUGGACAGAAGGGCAGAGCAA [G5A C6U U7A G8U C9A A23G]  0.157
12. AGUUAUAUAUGGGAGCUCCAGCUGAGUGAAAUGGACAGAAGGGCAGAGCAA [G5A C6U U7A G8U C9A A23U C24G]  0.128
13. AGUUAUAUAUGGGAGCUCCGACACAGUGAAAUGGACAGAAGGGCAGAGCAA [G5A C6U U7A G8U C9A A20G G21A]  0.112
14. AGUUAUAUAUGGGAGCUCCGCCACAGUGAAAUGGACAGAAGGGCAGAGCAA [G5A C6U U7A G8U C9A A20G G21C]  0.11
15. AGUUAUAUAUGGGAGCUCCGGCACAGUGAAAUGGACAGAAGGGCAGAGCAA [G5A C6U U7A G8U C9A A20G]  0.102
16. AGUUAUAUAUGGGAGCUCCAGCCAAGUGAAAUGGACAGAAGGGCAGAGCAA [G5A C6U U7A G8U C9A A23C C24A]  0.0996
17. AGUUAUAUAUGGGAGCUCCUGCACAGUGAAAUGGACAGAAGGGCAGAGCAA [G5A C6U U7A G8U C9A A20U]  0.0779
18. AGUUAUAUAUGGGAGCUCCAGCACAGUGAAAUGGACAGAAGGGCAGAGCAA [G5A C6U U7A G8U C9A]  0.074
19. AGUUAUAGAUGGGAGCUCCAGCACAGUGAAAUGGACAGAAGGGCAGAGCAA [G5A C6U U7A C9A]  0.0715
20. AGUUAUAUAUGGGAGCUCCGUCACAGUGAAAUGGACAGAAGGGCAGAGCAA [G5A C6U U7A G8U C9A A20G G21U]  0.0713
21. AGUUAUAAAUGGGAGCUCCAGCACAGUGAAAUGGACAGAAGGGCAGAGCAA [G5A C6U U7A G8A C9A]  0.0655
22. AGUUAUAUAUGGGAGCUCCUCCACAGUGAAAUGGACAGAAGGGCAGAGCAA [G5A C6U U7A G8U C9A A20U G21C]  0.0614
23. AGUUAUAUAUGGGCGCUCCAGCACAGUGAAAUGGACAGAAGGGCAGAGCAA [G5A C6U U7A G8U C9A A14C]  0.0601
24. AGUUAUAUAUGGGAGCUCCCACACAGUGAAAUGGACAGAAGGGCAGAGCAA [G5A C6U U7A G8U C9A A20C G21A]  0.0479
25. AGUUAUAAGUGGGAGCUCCAGCACAGUGAAAUGGACAGAAGGGCAGAGCAA [G5A C6U U7A G8A C9G]  0.0475
26. AGUUAUAUAUGGGAGCUCCCGCACAGUGAAAUGGACAGAAGGGCAGAGCAA [G5A C6U U7A G8U C9A A20C]  0.047
27. AGUUAUAAUUGGGAGCUCCAGCACAGUGAAAUGGACAGAAGGGCAGAGCAA [G5A C6U U7A G8A C9U]  0.0446
28. AGUUAUAGAAGGGAGCUCCAGCACAGUGAAAUGGACAGAAGGGCAGAGCAA [G5A C6U U7A C9A U10A]  0.0444
29. AGUUAUAUAUGGGGGCUCCAGCACAGUGAAAUGGACAGAAGGGCAGAGCAA [G5A C6U U7A G8U C9A A14G]  0.0395
30. AGUUAUAUAUGGGAGCUCCAGCUCAGUGAAAUGGACAGAAGGGCAGAGCAA [G5A C6U U7A G8U C9A A23U]  0.0353
31. AGUUAUAUAUGGGAGCUCCAGCCCAGUGAAAUGGACAGAAGGGCAGAGCAA [G5A C6U U7A G8U C9A A23C]  0.0335
32. AGUUAUAUAUGGGAGCUCCUUCACAGUGAAAUGGACAGAAGGGCAGAGCAA [G5A C6U U7A G8U C9A A20U G21U]  0.0251
33. AGUUAUAUAUGGGAGCUCCCUCACAGUGAAAUGGACAGAAGGGCAGAGCAA [G5A C6U U7A G8U C9A A20C G21U]  0.0238
34. AGUUAUAUAUGGGAGCUCCAGCUAAGUGAAAUGGACAGAAGGGCAGAGCAA [G5A C6U U7A G8U C9A A23U C24A]  0.0228
35. AGUUAUAUAUGGGGACUCCAGCACAGUGAAAUGGACAGAAGGGCAGAGCAA [G5A C6U U7A G8U C9A A14G G15A]  0.0192
36. AGUUAUAGUUGGGAGCUCCAGCACAGUGAAAUGGACAGAAGGGCAGAGCAA [G5A C6U U7A C9U]  0.0151
37. AGUUAUAUAUGGGAGCUCCCCCACAGUGAAAUGGACAGAAGGGCAGAGCAA [G5A C6U U7A G8U C9A A20C G21C]  0.0139
38. AGUUAUAGCUGGGAGCUCCAGCACAGUGAAAUGGACAGAAGGGCAGAGCAA [G5A C6U U7A]  0.0138
39. AGUUAUAUAUGGGAGCUCCAGCGUAGUGAAAUGGACAGAAGGGCAGAGCAA [G5A C6U U7A G8U C9A A23G C24U]  0.0127
40. AGUUAUAUAUGGGCCCUCCAGCACAGUGAAAUGGACAGAAGGGCAGAGCAA [G5A C6U U7A G8U C9A A14C G15C]  0.0124
41. AGUUAUAUAUGGGGCCUCCAGCACAGUGAAAUGGACAGAAGGGCAGAGCAA [G5A C6U U7A G8U C9A A14G G15C]  0.0123
42. AGUUAUAGGUGGGAGCUCCAGCACAGUGAAAUGGACAGAAGGGCAGAGCAA [G5A C6U U7A C9G]  0.0115
43. AGUUAUAUAUGGGCUCUCCAGCACAGUGAAAUGGACAGAAGGGCAGAGCAA [G5A C6U U7A G8U C9A A14C G15U]  0.0114
44. AGUUAUAUAUGGGAGCUCCUACACAGUGAAAUGGACAGAAGGGCAGAGCAA [G5A C6U U7A G8U C9A A20U G21A]  0.0106
45. AGUUAUAUAUGGGUCCUCCAGCACAGUGAAAUGGACAGAAGGGCAGAGCAA [G5A C6U U7A G8U C9A A14U G15C]  0.00818
46. AGUUAUAUAUGGGUGCUCCAGCACAGUGAAAUGGACAGAAGGGCAGAGCAA [G5A C6U U7A G8U C9A A14U]  0.00769
47. AGUUAUAUAUGGGAGCUCCAGCCUAGUGAAAUGGACAGAAGGGCAGAGCAA [G5A C6U U7A G8U C9A A23C C24U]  0.00662
48. AGUUAUAUAUGGGCACUCCAGCACAGUGAAAUGGACAGAAGGGCAGAGCAA [G5A C6U U7A G8U C9A A14C G15A]  0.00652
49. AGUUAUAUAUGGGUUCUCCAGCACAGUGAAAUGGACAGAAGGGCAGAGCAA [G5A C6U U7A G8U C9A A14U G15U]  0.00593
50. AGUUAUAUAUGGGGUCUCCAGCACAGUGAAAUGGACAGAAGGGCAGAGCAA [G5A C6U U7A G8U C9A A14G G15U]  0.00355
51. AGUUAUAUAUGGGUACUCCAGCACAGUGAAAUGGACAGAAGGGCAGAGCAA [G5A C6U U7A G8U C9A A14U G15A]  0.0025
